The values below come from PMC3042367 (Biochemistry, 2010).

The target in this experiment is R831b MerB (organomercurial lyase), unliganded (Serratia marcescens (plasmid R831b), UniProt P77072 1-212). The experiment can be described thus: stopped-flow fluorescence kinetics.
Sequence of R831b MerB (organomercurial lyase), unliganded (P77072 whole entry): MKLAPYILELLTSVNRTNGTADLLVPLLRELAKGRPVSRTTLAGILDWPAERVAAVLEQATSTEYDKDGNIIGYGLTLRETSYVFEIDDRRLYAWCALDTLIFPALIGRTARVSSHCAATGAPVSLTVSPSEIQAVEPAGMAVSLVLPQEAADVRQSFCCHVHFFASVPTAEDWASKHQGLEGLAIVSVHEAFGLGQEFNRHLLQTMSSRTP

B1: HgNmerA, 1:1 Hg(II) complex of pDU1358 NmerA (domain or fragment, Serratia marcescens (plasmid pDU1358), UniProt P08662 1-69, looked up)
chain: MTHLKITGMTCDSCAAHVKEALEKVPGVQSAIVSYAKGAAQLALDPGTAPDALTAAVAGLGYKAMLADA
modifications: also: 1:1 Hg(II) complex bound to Cys11 and Cys14 (CXXC motif)
For orientation: Kd means the free concentration of one partner at which half of the binding sites on the other are occupied at equilibrium, for simple one-to-one binding. A low value points to tighter binding. One may read the koff as a measure of how fast the partners let go of each other. Lower therefore signals slow dissociation. A word on the kon: it is the rate constant with which the complex forms. The low end stands for slower complex formation, the high end for faster complex formation. The molecule B1 showed a Kd of 660 µM, a koff of 330 s⁻¹ and a kon of 500000 M⁻¹ s⁻¹.
